We go through two molecules from PMC5373496 (Science (New York, N.Y.), 2016).

The target in experiment [1] is T1, Cdc37 tagged at its N terminus with T4 lysozyme (human, UniProt Q16543 1-378).
T1 sequence (looked up): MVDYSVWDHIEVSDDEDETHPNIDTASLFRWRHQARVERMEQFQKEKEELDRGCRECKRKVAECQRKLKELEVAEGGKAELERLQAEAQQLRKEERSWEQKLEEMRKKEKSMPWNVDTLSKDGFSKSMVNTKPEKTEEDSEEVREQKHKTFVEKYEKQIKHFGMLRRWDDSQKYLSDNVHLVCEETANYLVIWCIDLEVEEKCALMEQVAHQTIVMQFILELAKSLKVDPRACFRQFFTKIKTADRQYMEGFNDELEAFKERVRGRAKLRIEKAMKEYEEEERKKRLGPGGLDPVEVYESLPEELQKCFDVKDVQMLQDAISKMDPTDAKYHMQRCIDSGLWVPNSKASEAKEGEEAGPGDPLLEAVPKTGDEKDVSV
Kind of experiment: cryo-EM structure.

Experiment [2] addresses T2, Cdc37 of the yeast complex with T4 lysozyme-tagged Cdk4 (human, UniProt Q16543 1-378).
T2 sequence (looked up): T1 sequence (looked up)
The experiment in a line: cryo-EM structure.

B1: Cdk4 of the yeast complex with T4 lysozyme-tagged Cdc37 (natural protein, human, UniProt P11802 1-303, looked up)
chain: MATSRYEPVAEIGVGAYGTVYKARDPHSGHFVALKSVRVPNGGGGGGGLPISTVREVALLRRLEAFEHPNVVRLMDVCATSRTDREIKVTLVFEHVDQDLRTYLDKAPPPGLPAETIKDLMRQFLRGLDFLHANCIVHRDLKPENILVTSGGTVKLADFGLARIYSYQMALTPVVVTLWYRAPEVLLQSTYATPVDMWSVGCIFAEMFRRKPLFCGNSEADQLGKIFDLIGLPPEDDWPRDVSLPRGAFPPRGPRPVQSVVPEMEESGAQLLLEMLTFNPHKRISAFRALQHSYLHKDEGNPE
As for B1, the binding result in experiment [1] is “binds”.

B2: Cdk4 tagged at its C terminus with T4 lysozyme (natural protein, human, UniProt P11802 1-303, looked up)
chain: B1 chain
For the molecule B2, the binding result in experiment [2] is listed as “binds”.
